Laboratory results reported in publication doi:10.1101/2022.08.11.503658.

Legend:
Assay in all cases: SDS-PAGE of lysate kept at 25°C versus heated to 95°C, with immunoblot
[1] = biological target: C-terminally 6xHis-tagged NoV GII.4 VP1 capsid protein expressed by rSA11/NSP3-2A-VP1His (human norovirus GII.4 MD145-12)
[2] = biological target: Rotavirus SA11 NSP3 (wild type, from rSA11/wt) (rotavirus SA11)
[3] = biological target: Rotavirus SA11 NSP3 linked to remnant residues of the 2A peptide (rotavirus SA11 | porcine teschovirus)
[4] = biological target: Rotavirus SA11 VP6 (rotavirus SA11)
[5] = biological target: C-terminally 1xFLAG-tagged NoV GII.4 VP1 capsid protein expressed by rSA11/NSP3-2A-VP1f (human norovirus GII.4 MD145-12)
[6] = biological target: N-terminally 3xFLAG-tagged NoV GII.4 VP1 capsid protein expressed by rSA11/NSP3-2A-fVP1 (human norovirus GII.4 MD145-12)

Substance: C-terminally 6xHis-tagged NoV GII.4 VP1 capsid protein expressed by rSA11/NSP3-2A-VP1His (natural protein)
- stoichiometry N [1]: 2

Substance: Rotavirus SA11 NSP3 (wild type, from rSA11/wt) (natural protein)
- stoichiometry N [2]: 2

Substance: Rotavirus SA11 NSP3 linked to remnant residues of the 2A peptide
- stoichiometry N [3]: 2

Substance: Rotavirus SA11 VP6 (natural protein)
- stoichiometry N [4]: 3

Substance: C-terminally 1xFLAG-tagged NoV GII.4 VP1 capsid protein expressed by rSA11/NSP3-2A-VP1f (natural protein)
- stoichiometry N [5]: 2

Substance: N-terminally 3xFLAG-tagged NoV GII.4 VP1 capsid protein expressed by rSA11/NSP3-2A-fVP1 (natural protein)
- stoichiometry N [6]: 2
